Laboratory results as given in patent publication US20230174599A1 (University of California, published 2023).
Several values for one entry are separate records, joined by “and”; a condition that tells them apart may be missing. Equal entries are not always repeated. Where two headings read alike, the source gives them in different places.

Legend:
SARS-CoV-2 Spike RBD [1] = biological target: T1, SARS-CoV-2 Spike RBD (SARS-CoV-2, UniProt P0DTC2 319-541)
T1 construct: domain: RBD; also called single RBDs; Spike RBD proteins

SARS-CoV-2 Spike RBD [2] = biological target: T1, SARS-CoV-2 Spike RBD
SARS-CoV-2 Spike RBD [3] = biological target: T1, SARS-CoV-2 Spike RBD; remark: listed apart in the source
SARS-CoV-2 Spike RBD [4] = biological target: T1, SARS-CoV-2 Spike RBD; remark: listed apart in the source

B1: RiAFP-HTH.1 (designed binder)
chain: ASRAEARGEAMAEGHSRGSATSHANATGHADARSMSEGNAEAYTEAKGDAMATSEASGEARAQTNADGSAHSSSRTHGRADSTASAKTNYNRECGEEQAKTFLDKFNHEAEDLFYQSSLASWNYNTNITEENVQNRNNAGDKRSAFLKEQSTLAQMYGCGSGSAMAEGTSDGDAKSYASADGNASAKSMSTGHADATTNAHGTAMADSNAIGEARAETRAEGRAESSSDTDGS
notes: also called mBSP-HTH.1; RiAFP-HTH.1 construct
Binder B1 has a Kd (SARS-CoV-2 Spike RBD [1]) of 0.7 to 1.6 nM.

B2: RiAFP-HTH.2 (designed binder)
chain: ASRAEARGEAMAEGHSRGSATSHANATGHADARSMSEGNAEAYTEAKGDAMATSEASGEARAQTNADGSAHSSSRTHGRADSTASAKGGKALNDKEAKNKAILNLEEIEEQAKTFLDKFNHEAEDLFYQSSLASWNYNTNITEENVQNMNNAGDKWSAFLKEQSTLAQMYQNEIKRKSEKQEDLKKEMLELEKLGGAMAEGTSDGDAKSYASADGNASAKSMSTGHADATTNAHGTAMADSNAIGEARAETRAEGRAESSSDTDGS
notes: also called mBSP-HTH.2; RiAFP-.2
With B2 the Kd (SARS-CoV-2 Spike RBD [2]) was ≥ 41 nM and ≤ 84 nM and 28 nM, the Kd (SARS-CoV-2 Spike RBD [3]) was 2.1 nM and the Kd (SARS-CoV-2 Spike RBD [1]) was 2.1 to 28 nM.

B3: polymeric RiAFP-HTH.2 fixed to nitrocellulose (designed binder)
chain: ASRAEARGEAMAEGHSRGSATSHANATGHADARSMSEGNAEAYTEAKGDAMATSEASGEARAQTNADGSAHSSSRTHGRADSTASAKGGKALNDKEAKNKAILNLEEIEEQAKTFLDKFNHEAEDLFYQSSLASWNYNTNITEENVQNMNNAGDKWSAFLKEQSTLAQMYQNEIKRKSEKQEDLKKEMLELEKLGGAMAEGTSDGDAKSYASADGNASAKSMSTGHADATTNAHGTAMADSNAIGEARAETRAEGRAESSSDTDGS
With B3 the Kd (SARS-CoV-2 Spike RBD [4]) was 0.006 to 0.009 nM and ≤ 0.01 nM and the koff (SARS-CoV-2 Spike RBD [4]) was 6e-07 to 9e-07 s⁻¹.
